In PMC4349660:

What was measured:
[1] = biological target: Glycophorin A, native, on intact unmodified human erythrocytes (human (endogenous in erythrocytes)) (UniProt P02724); test: backscattering interferometry (BSI); free solution, label-free; intact erythrocytes at 0.1% haematocrit in 0.01% BSA-PBS, PfEBA175 dilution series up to 1 μM, 1 h at room temperature; reference: neuraminidase-treated erythrocytes, subtracted; square hyperbolic fit
[2] = biological target: Basigin, native, on intact unmodified human erythrocytes (human (endogenous in erythrocytes)); test: backscattering interferometry (BSI); free solution, label-free; intact erythrocytes at 0.1% haematocrit in 0.01% BSA-PBS, PfRH5 dilution series up to 4.5 μM, 1 h at room temperature; reference: erythrocytes pre-incubated with 10 μg/mL anti-BSG antibody MEM-M6/6, subtracted; square hyperbolic fit

| Substance | Kd [1] | Kd [2] |
| --- | --- | --- |
| PfEBA175, entire ectodomain, monomeric Cd4-tagged recombinant protein (ligand) | 50 nM |  |
| PfRH5, entire ectodomain, Cd4-tagged monomer (ligand) |  | 1100 nM |
